Test results from the nanobody polyreactivity screen of Harvey et al. (2022).

Assay: yeast display, Sf9 membrane polyspecificity reagent, FACS + sequencing; frameworks hold sequencing errors
Summary of the method: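 Polyreactivity labels are assigned by the sorting gate from which each nanobody was recovered. The gates were low and high (top ~1%), set on anti-HA fluorescence for expression and streptavidin fluorescence for reagent binding. Before sorting, galactose-induced (36–48 hours) yeast display cells were stained for 1 hour at 4 °C with 10% biotinylated, detergent-solubilized Sf9 membrane reagent.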

QVQLGESGGGLVQAGGSLRLSCAASGRNFSTYTMGWYRQATWKERELVASISWSGVRTRYADSVKGRFTISRDNAKNTVYLQMNSLKPEDTAVYYCAAVVPYYYRSPSNHMGYWGQGTQVTVSS
polyreactivity (PSR sort gate): high polyreactivity

QVQLGESGGGLVQAGGSLRLSCAASGRTFSYYAKGWNRPAPGKERELVGAISSTGGSTYYADSVKGRFTISRDNAKNTVYLQMNSLKPEDTAVYYCAARWYVLYYRGGYCGQGTQVTVSS
polyreactivity (PSR sort gate): low polyreactivity

QVQLGESGGGLVQAGGSLRLSCAASGRTFVSNAMGWYRPAPGNERELVAAITQSGGSTYADSVKGRFTISRDNAKNTVYLQMNSLKPEDTAVYYCNADHAFVGTYYERHDYWGQGTQVTVSS
polyreactivity (PSR sort gate): low polyreactivity

QVQLGESGGGLVQAGGSLRLSCAASGSIFFLYAMGWYRQAPGKERELVAAISLSTGNTYYADSVKGRFTISRDNAKNTVYVQKNSLKPEDTAVYYCAAEDYWSAYYWGQGTQVTVSS
polyreactivity (PSR sort gate): high polyreactivity

QVQLGESGGGLVQAGGSLRLSCAASGSIFGSYAMGWYRQATGKERELVAAISYSGGTTYYADSVKGRFTNSRDNAKNTVYLQMNSLKPEDTAVYYCNAPVAYEREYEYWGQGTQVTVSS
polyreactivity (PSR sort gate): low polyreactivity

QVQLGESGGGLVQAGGSLRLSCAASGSIFVPYAMGWYRQAPGKERELVAVITSGGSTYYADSVKGRFTISRDNAKNTVYLQMNSLKPEDTAVYYCYADLYYVWSTLSQFDYWGQGTQVTVSS
polyreactivity (PSR sort gate): low polyreactivity

QVQLGESGGGLVQAGGSLRLSCAASGSIFYGYAMGWYRHAPGKERELVAAITRDGSTNYADSVKGRFTISLDNAKNTVYLQMNSLKPEDTAVYYCAADTRSRRLSLVRRDYWGQGTQVTVSS
polyreactivity (PSR sort gate): high polyreactivity

QVQLGESGGGLVQAGGSLRLSCAASGSIVDVYAMGWYRPAPGKERELVADITSGDITNYADSVKGRFTISRDNAKNTVYLQMNSLKPEDTAVYYCATPLKLAYSPKLDYWGQGTQLTVSS
polyreactivity (PSR sort gate): low polyreactivity

QVQLGESGGGLVQAGGSLRLSCAASGSTFAYNERGWYSQAPGHERELVADIRSGGNTNYADSVKGRFTISRDNAKNTVYLQMPSLKPEDTAVYYCATDGYRIDVYHPDYRYDYWGQGTQVTVSS
polyreactivity (PSR sort gate): low polyreactivity

QVQLGESGGGLVQAGGSLRLSCAASGSTFIDYAMGWYRQAPGKERELVAAITNGGNTKYADSVKGRFTISRDNAKNTVYLQMNSLKPEDTAVYYCAKYYYTSIVGYDSWGQGTQVTVSS
polyreactivity (PSR sort gate): low polyreactivity

QVQLGESGGGLVQAGGSLRLSCAASGSTFVVYAMGWYRQAPGKERELVAAITRGASTTYADSVKGRFTISRDNAKNTVYLQMNSLKPEDTAVYYCAAAVAYEYLQSAYTRYYYWGQGTQVTVSS
polyreactivity (PSR sort gate): high polyreactivity

QVQLGESGGGLVQAGGSLRLSCAASGSTFWPYAMGWYRQAPGKERELVATIRWSGGSTSYADSVKGRFTISRDNAKNTVYLQMNSVKPEDTAVFYCAARDFHYYRFKTYGYWGQGTQVTVSS
polyreactivity (PSR sort gate): high polyreactivity

QVQLGESGGGLVQAGGSLRLSCAASGSTFYVYAQGWYRPAPGKERELVAAISSSGARTYYADSVKGRFTISRDNAKNTVYLQMNCLKPDDTAVLYCAARRYYKFYYWGHGTQVTVSS
polyreactivity (PSR sort gate): high polyreactivity

QVQLGESGGGLVQAGGSLRLSCAASGSTIRRYTMGWYRQAPGKERELDAAITGSGGSTYYADSVKGRFTISRDNAKNTVYLQMNSLKPEDPAVYYCAAPPWRRIVGGIYDYWGQGTQVTVSS
polyreactivity (PSR sort gate): high polyreactivity

QVQLGESGGGLVQAGGSLRLSCAASGYTFRPYAMGGYRQAPGKESELVAAISSGDSTNYADSVKGRFTISRDNAKNTVYLQMNSLNPEDTAVYYCAARRVGGGFYTWRNPAYEYWGQGTQVTVSS
polyreactivity (PSR sort gate): high polyreactivity

QVQLGESGGGLVQAGGSLRLSCAGSGRTFVRSARGWSSQAPGKARELVARITSRGTSTYYADSVKGRFTSSRDNAKNTDYLLMNSLNPEDNAVYYCNNVRTFRDNSRYDYWGQGTHVTVSS
polyreactivity (PSR sort gate): low polyreactivity

QVQLGESGGGLVQAGGSLSLSCAASGFSISWYVMGWYRLAPGKERELVAAISWSGDRTYYADSVKGRFTISRDNAKNTVYLQMNSLKPEDTAVFYCAARRWRKYFSGYNYWGQGTQVTVSS
polyreactivity (PSR sort gate): high polyreactivity
